From patent US20220259289A1 (Janssen / Centocor, published 2022)

B1: ISOP193ER9P1A3 (designed binder, not shown: small tags and cut ends)
chain: LPAPKNLVVSRVTEDSARLSWTTPDAAFDSFDIYYFEHPVGGEAIVLTVPGSERSYDLTGLKPGTEYLVTIYGVKGGYLSKPLSAIFTT
B2: ISOP193ER9P1E1 (designed binder, not shown: small tags and cut ends)
chain: LPAPKNLVVSRVTEDSARLSWTAPDAAFDSFDIYYFEHPVGGEAIVLTVPGSERSYDLTGLKPGTEYLVTIYGVKGGSVSIPLSAIFTT
B3: ISOP193HR9P1D11 (designed binder, not shown: small tags and cut ends)
chain: LPAPKNLVVSRVTEDSARLSWTAPDAAFDSFDIYYYELRLGGEAIVLTVPGSERSYDLTGLKPGTEYLVTIYGVKVCEQSYPLSAIFTT
B4: ISOP193HR9P1A7 (designed binder, not shown: small tags and cut ends)
chain: LPAPKNLVVSRVTEDSARLSWTAPDAAFDSFDIYYYELRLGGEAIVLTVPGSERSYDLTGLKPGTEYLVTIYGVKVCNASTPLSAIFTT
B5: ISOP193FR9P1G11 (designed binder, not shown: small tags and cut ends)
chain: LPAPKNLVVSRVTEDSARLSWTAPDAAFDSFTIYYFENENGGEAIVLTVPGSERSYDLTGLKPGTEYLVTIYGVKGCDWSDPLSAIFTT
B6: ISOP193ER9P1A4 (designed binder, not shown: small tags and cut ends)
chain: LPAPKNLIVSRVTEDSARLSWTAPDAAFDSFEIYYKELRAEGEAIVLTVPGSERSYDLTGLKPGTEYLVTIYGVKGGSVSIPLSAIFTT
B7: ISOP193HR9P1B11 (designed binder, not shown: small tags and cut ends)
chain: LPAPKNLVVSRVTEDSARLSWTAPDAAFDSFEIYYFELRLGGEAIVLTVPGSERSYDLTGLKPGTEYLVTIYGVKGCGYSDPLSAIFTT
B8: ISOP193HR9P1A5 (designed binder, not shown: small tags and cut ends)
chain: LPAPKNLVVSRVTEDSARLSWTAPDAAFDSFDIYYYELRLGGEAIVLTVPGSERSYDLTGLKPGTEYLVTIYGVKGCGYSAPLSAIVTT
B9: ISOP193ER9P1D4 (designed binder, not shown: small tags and cut ends)
chain: LPAPKNLVVSRVTEDSARLSWTAPDAAFDSFDIYYFEHPVGGEAIVLTVPGSERSYDLTGLKPGTEYLVTIYGVKGGTYSPPLSAIFTT
B10: ISOP193ER9P1C10 (designed binder, not shown: small tags and cut ends)
chain: LLAPKNLVVSRVTEDSARLSWIAPDAAFDSFEIYYKELRAEGEAIVLTVPGSERSYDLTGLKPGTEYLVTIYGVKGGSVSIPLSAIFTT
B11: ISOP193HR9P1D8 (designed binder, not shown: small tags and cut ends)
chain: LPAPKNLVVSRVTEDSARLSWTAPDAAFDSFDIYYLESGRDGEAIVLTVPGSERSYDLTGLKPGTEYLVSIYGVKGCGYSDPLSAIFTT
B12: ISOP193ER9P1E2 (designed binder, not shown: small tags and cut ends)
chain: LPAPKNLVVSRVTEDSARLSWTAPDAAFDSFDIYYFEHPVGGEAIVLTVPGSERSYDLTGLKPGTEYLVTIYGVKGGFWSQPLSAIFTT
B13: ISOP193HR9P1A6 (designed binder, not shown: small tags and cut ends)
chain: LPAPKNLVVSRVTEDSARLSWTAPDAAFDSFDIYYYELRLGGEAIVLTVPGSERSYDLTGLKPGTEYLVSIYGVKGCGYSDPLSAIFTT
B14: ISOP193ER9P1C4 (designed binder, not shown: small tags and cut ends)
chain: LPAPKNLVVSRVTEDSARLSWTAPDAAFDSFDIYYFEHPVGGEAIVLTVPGSERSYDLTGLKPGTEYLVTIYGVKGGIWSVPLSAIFTT
B15: ISOP193HR9P1C7 (designed binder, not shown: small tags and cut ends)
chain: LPAPKNLVVSRVTEDSARLSWTAPDAAFDSFEIYYLELDSDGEAIVLTVPGSERSYDLTGLKPGTEYIVTIYGVKVCTGSRPLSAIFTT
B16: ISOP193FR9P1H6 (designed binder, not shown: small tags and cut ends)
chain: LPAPKNLVVSRVTEDSARLSWTAPDAAFDSFDINYFEQPKGGEAIVLTVPGSERSYDLTGLKPGTEYLVTIYGVKGCDWSDPLSAIFTT
B17: ISOP193ER9P1C9 (designed binder, not shown: small tags and cut ends)
chain: LPAPKNLVVSRVTEDSARLSWTAPDAAFDSFDIYYFEHPVGGEAIVLTVPGSERSYDLTGLKPGTEYLVTIYGVKGGELSKPLSAISTT
B18: ISOP193HR9P1B7 (designed binder, not shown: small tags and cut ends)
chain: LPAPKNLVVSRVTEDSARLSWTAPDAAFDSFEIYYFELRLGGEAIVLTVPGSERSYDLTGLKPGTEYLVSIYGVKGCGYSDPLSAIFTT
B19: ISOP193HR9P1E2 (designed binder, not shown: small tags and cut ends)
chain: LPAPKNLVVSRVTEDSARLSWTAPDAAFDSFEIYYLEWCSGGEAIVLTVPGSERSYDLTGLKPGTEYLVTIYGVKGCAASDPLSAIFTT
B20: ISOP193ER9P1G2 (designed binder, not shown: small tags and cut ends)
chain: LPAPKNLVVSRVTEDSARLSWTAPDAAFDSFDIYYFEQPVGGEAIVLTVPGSERSYDLTGLKPGTEYLVTIYGVKGGYLSMPLSAIFTT
B21: ISOP193HR9P1E6 (designed binder, not shown: small tags and cut ends)
chain: LPAPKNLVVSRVTEDSARLSWTAPDAAFDSFEIYYAEFGYYGEAIVLTVPGSERSYDLTGLKPGTEYLVTIYGVKGCAASDPLSAIFTT
B22: ISOP193ER9P1G9 (designed binder, not shown: small tags and cut ends)
chain: LPAPKNLVVSRVTEDSARLSWTAPDAAFDSFDIYYFEHPVGGEAIVLTVPGSERSYDLTGLKPGTEYLVTIYGVKGGNGSSPLSAIFTT
B23: ISOP120HR5P1E2 (designed binder, not shown: small tags and cut ends)
chain: LPAPKNLVVSHVTEDSARLSWTAPDAAFDSFEIYYLEGGRGEAIVLTVPGSERSYDLTVLKPGTEYLGTIYGVKCGWASNPLSAIFTT
notes: FN3 domain (Centyrin); tested as E. coli lysate
B24: ISOP193HR9P1A11 (designed binder, not shown: small tags and cut ends)
chain: LPAPKNLVVSRVTEDSARLSWTAPDAAFDSFEIYYLEGGRGEAIVLTVPGSERSYDLTGLKPGTEYLVTIYGVKCGWASNPLSAIFTT

Experiments:
[1] = target: T1, recombinant human CD137-Fc-IgG1 (human, UniProt Q07011 24-186, limits assumed); test: SPR (Biacore T100), CD137-Fc captured by anti human IgG, 1:1 model
T1 construct: Captured by anti human IgG on the Biacore chip
Protocol: For selected FN3 domains, binding to recombinant CD137-Fc was evaluated using surface plasmon resonance (Biacore T100). For each cycle approximately 500 RU of recombinant human CD137-Fc-IgG1 was captured via an anti human IgG immobilized on the surface of a CMS chip. Once CD137-Fc protein was captured, increasing concentrations of Centyrin candidates were injected for 120 s and dissociation was then analyzed for 240 s. A flow cell immobilized with just the anti human IgG1 antibody served as reference flow cell. Kd values were subsequently extrapolated using a 1:1 kinetic binding model (BiaEvaluation software).

[2] = target: unrelated Fc-fused recombinant protein; test: ELISA, negative control Fc protein
human serum albumin = target: T2, human serum albumin (human, UniProt P02768 25-609); test: ELISA, negative control HSA
T2 construct: Negative control of the ELISA; also called HSA
T2 sequence (P02768 25-609 limits assumed): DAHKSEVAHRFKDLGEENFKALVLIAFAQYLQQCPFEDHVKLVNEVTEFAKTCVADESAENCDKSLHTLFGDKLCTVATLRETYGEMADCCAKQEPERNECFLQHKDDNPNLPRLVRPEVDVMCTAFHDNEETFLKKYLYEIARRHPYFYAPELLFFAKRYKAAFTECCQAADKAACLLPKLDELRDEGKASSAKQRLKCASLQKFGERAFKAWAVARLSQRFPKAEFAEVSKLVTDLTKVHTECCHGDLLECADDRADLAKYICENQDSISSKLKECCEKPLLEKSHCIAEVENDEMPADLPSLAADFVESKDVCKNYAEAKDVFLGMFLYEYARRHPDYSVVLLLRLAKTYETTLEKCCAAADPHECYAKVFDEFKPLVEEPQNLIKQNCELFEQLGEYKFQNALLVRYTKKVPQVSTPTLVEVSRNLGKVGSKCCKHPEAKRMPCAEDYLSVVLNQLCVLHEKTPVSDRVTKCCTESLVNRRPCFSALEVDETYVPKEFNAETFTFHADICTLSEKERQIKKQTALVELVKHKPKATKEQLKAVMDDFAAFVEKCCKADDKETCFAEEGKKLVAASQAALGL
How it was run: (§1)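 Biotinylated CD137-Fc, an unrelated Fc-fusion protein or human serum albumin captured 1 h on streptavidin plates blocked in Starting Block T20; diluted bacterial lysate applied 1 h. Bound binders detected with HRP-conjugated anti-Centyrin antibody (PAB25) for 1 h, then POD substrate read-out.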

[3] = target: T3, recombinant biotinylated CD137 protein (Fc-fusion protein, R&D Systems 838-4B) (human, UniProt Q07011 24-186, biotinylated, sites not stated); test: ELISA, lysate on biotinylated CD137-Fc
T3 construct: Bought Fc fusion; also called CD137-Fc
How it was run: as §1

[4] = target: extracellular domain of human CD137 on the surface of CHO-K1 cells (human, UniProt Q07011 24-186); test: flow cytometry on CHO-K1 cells with human CD137 ECD
Protocol: Cell surface binding was analyzed via flow cytometry. Cenyrins were prepared at a maximal concentration of 500 nM in the presence of 125 nM anti His-mIgG1 antibody and then serially diluted in PBS/1% FCS buffer. Samples were then applied to approx 100 000 CHO-Kl cells expressing the extracellular domain of human CD137 on their surface. Unbound Centyrin/Antibody complexes were washed away and bound FN3 domains were detected by the addition of goat anti mouse-FITC labeled antibody. Samples were then aquired by flow cytometry. Subsequently, Mean flurescence intensity was plotted against the log Centyrin concentration and EC50 values were calculated by nonlinear regression using GraphPad Prism.

[5] = target: human serum albumin (human) (UniProt P02768); test: ELISA, negative control HSA
Sequence of human serum albumin (human) (P02768 25-609 limits assumed): as above

[6] = target: T4, recombinant biotinylated human CD137 protein (Fc-fusion protein, R&D Systems 838-4B) (human, UniProt Q07011 24-186, biotinylated (site not stated)); test: ELISA, bacterial lysate on plate-bound antigen, luminescence
T4 construct: Bought Fc fusion; The ELISA used the same antigen as the panning; also called CD137-Fc; biotinylated CD137; not shown: Fc part of the bought fusion protein
How it was run: as §1

[7] = target: human serum albumin (human) (UniProt P02768); test: as above
[8] = target: unrelated Fc-fused recombinant protein (negative control); test: as above

| Binder | Kd [1] [µM] | ELISA Fc Control (RLU) [2] [RLU] | ELISA HSA (RLU) (human serum albumin) | ELISA CD137 (RLU) [3] [RLU] | EC50 [4] [µM] | ELISA HSA (RLU) [5] [RLU] | ELISA CD137-Fc (RLU) [6] [RLU] | ELISA HSA (RLU) [7] [RLU] | ELISA Fc Control (RLU) [8] [RLU] |
| --- | --- | --- | --- | --- | --- | --- | --- | --- | --- |
| B1 | 0.0083 | 3040 | 880 | 1.42e+07 | 0.0102 |  |  |  |  |
| B2 | 0.0106 | 1200 | 560 | 1.5e+07 | 0.0126 |  |  |  |  |
| B3 |  | 48700 |  | 1.42e+07 |  | 6240 |  |  |  |
| B4 |  | 48900 |  | 1.48e+07 |  | 12600 |  |  |  |
| B5 |  | 60600 |  | 1.08e+07 |  | 11000 |  |  |  |
| B6 | 0.117 | 960 | 480 | 9.81e+06 | 0.0271 |  |  |  |  |
| B7 |  | 15000 |  | 1.66e+07 |  | 4080 |  |  |  |
| B8 |  | 6080 |  | 1.49e+07 |  | 2080 |  |  |  |
| B9 | 0.00955 | 1120 | 480 | 1.6e+07 | 0.0129 |  |  |  |  |
| B10 | 0.108 | 2480 | 560 | 8.87e+06 | 0.031 |  |  |  |  |
| B11 |  | 10900 |  | 6.27e+06 |  | 2640 |  |  |  |
| B12 | 0.0109 | 1040 | 560 | 1.57e+07 | 0.0153 |  |  |  |  |
| B13 |  | 25000 |  | 1.46e+07 |  | 5120 |  |  |  |
| B14 | 0.0131 | 960 | 320 | 1.55e+07 | 0.0189 |  |  |  |  |
| B15 |  | 71400 |  | 3.44e+06 |  | 10000 |  |  |  |
| B16 |  | 88300 |  | 1.12e+07 |  | 23000 |  |  |  |
| B17 | 0.0251 | 880 | 560 | 1.43e+07 | 0.0141 |  |  |  |  |
| B18 |  | 13000 |  | 1.64e+07 |  | 2240 |  |  |  |
| B19 |  | 13100 |  | 9.02e+06 |  | 3840 |  |  |  |
| B20 | 0.0656 | 1680 | 720 | 7.19e+06 | 0.0229 |  |  |  |  |
| B21 |  | 20100 |  | 1.13e+07 |  | 3040 |  |  |  |
| B22 | 0.0599 | 1280 | 400 | 1.29e+07 | 0.0153 |  |  |  |  |
| B23 |  |  |  |  |  |  | 1.32e+06 | 2880 | 720 |
| B24 |  | 28300 |  | 1.66e+07 |  | 4240 |  |  |  |
